Measured values: patent publication US20240423474A1, “SYSTEM AND METHOD FOR INTRAOPERATIVE LIFETIME IMAGING” (The General Hospital Corporation, priority 2021, published 2024)

How the values were obtained:
FaDu cells = assay: Confocal FLIM of FaDu cells incubated with imaging probes; format: cell-based; details: 100 μg probe, 2 hours incubation
Method: Also, a […] 8 FALCON (Leica, Germany) FLIM system was used for NIR FLIM of 10-μm thin tissue sections (murine tumors and clinical specimens). Imaging was performed using 730 nm excitation with 750 nm notch filter and detected with a HyD R detector operating within 770-850 nm range. A 10×, 0.4 NA objective was used for image collection and digital images with 512×512 pixels (2.275 μm/pixel), 4 line repetitions and 4 line averages were obtained. TD data was collected using time-correlated single photon counting.
For in vitro experiments, FaDu cells were plated at 0.2×10^6 cells per well in a 12-well plate containing poly-D-lysine coated glass coverslips and were allowed to adhere to the coverslips for 24 hours. […] After probe incubation, cells were fixed in 4% para-formaldehyde (PFA) and mounted with ProLong Gold Antifade medium (ThermoFisher Scientific, Waltham, Massachusetts, United States) for confocal FLIM.
For the FLIM and IHC image analysis, the FALCON/FLIM software was used to collect and analyze the FLIM data. Lifetime values at each pixel location was calculated by using a single exponential fitting of the fluorescence decay curves. […] IHC image ROIs were analyzed by color deconvolution using the IHC Tool Box in ImageJ (NIH, Version 1.48u) to extract EGFR positive pixels within each ROI. […] Corresponding FLIM image ROIs were analyzed by averaging FLT values above 0.3 ns. […]

[1] = several recent clinical trials; cited from earlier work
[2] = Widefield FLT of probes in culture media and stock solution in PBS; format: physicochemical
Excerpt: In accordance with one particular and non-limiting study, for widefield time-domain imaging, a system akin that of FIG. 1 was used that included a Supercontinuum laser and tunable filter (EXR-20, SuperK Varia, NKT Photonics, 80 MHz repetition rate; 400-850 nm tuning range) providing 770±30 nm excitation, a multimode fiber (Thorlabs, Newton, New Jersey, United States) delivering light to the sample, and a gated intensified CCD (LaVision, Picostar, 500 V gain, 0.1 to 1 second integration time, 150 ps steps, 256×344 pixels after 4×4 hardware binning). A digital micromirror device was used to expand the output of the optical fiber and delivered to the surface of the animal. The average total power across the illumination area (approximately 6×8-cm) was 10 to 20 mW. Fluorescence was collected in reflectance mode using an 835/70-nm band-pass filter. TD fluorescence imaging was performed with a gate width of 600 ps and 150 ps steps for a total duration of approximately 6 ns per laser duty cycle of 12.5 ns. […] Animals were sacrificed after imaging and tumors were immediately frozen in optimal cutting temperature (OCT) compound for fluorescence lifetime imaging microscopy (FLIM), histology and immunohistochemical (IHC) staining.
For the widefield TD data analysis, TD fluorescence images were analyzed in MATLAB (MathWorks, Natick, Massachusetts, United States) using a custom software. […]

panitumumab-IRDye800CW: conjugate of the FDA approved therapeutic antibody for the epidermal growth factor receptor (EGFR), panitumumab, with IRdye800CW, an NIR dye
probe uptake in cells (FaDu cells): higher probe uptake
safety in humans [1]: safe for human use
FLT in culture media ([2]; culture media collected after incubation with cancer cells): 0.58 ns
FLT of stock solution in PBS ([2]; stock solution in PBS): 0.58 ns
